Among the data in article PMC7026483 are binding values, retold here.

The data set addresses T1, GlxR-A131T A131T (Corynebacterium glutamicum WT (ATCC 13032?)) (UniProt Q79VI7).
T1 sequence: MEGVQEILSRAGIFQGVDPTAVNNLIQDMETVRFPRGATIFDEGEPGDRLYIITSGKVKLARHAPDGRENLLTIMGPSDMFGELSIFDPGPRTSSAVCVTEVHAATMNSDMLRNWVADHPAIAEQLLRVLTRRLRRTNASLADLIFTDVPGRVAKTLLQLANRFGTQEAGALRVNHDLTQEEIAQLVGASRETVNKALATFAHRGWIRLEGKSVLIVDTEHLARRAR
Description: EMSA. To be noted: EMSA: 100 ng DNA, 200 nM protein, with or without 0.2 mM cAMP, 30 min, room temperature, 10% native PAGE; binding buffer as in Bussmann et al. 2009 (not …).

Turning to “CTTCCTGGCGAAATGTCCGTCAAATTGTGAACCCCTTCACACCTTTGGTTAAAAGTCACTGCCCACAAGTGACTGAACCTGGCAGCGACCTCATGAATTGTTTGAAAAACATTTTTTTTGGGCATGAAAAGGGGATACAG (double strand) [ctaD promoter fragment]”, the binding entry is “binds”.
The same measure for “GGTGGAAATATCTTCGTGGGTTTCGTTTTTAGGGGCGTCAAATGTCTTTCAACTGCAACGATATGCCCGAATCCTCAGGTGGAATACCTAAAGTCTAGGCAATTGGTGTATGCCACGTCACAGACCATCAAC (double strand) [ctaCF promoter fragment]”: “binds”.
